From the nanobody polyreactivity screen of Harvey et al. (2022)

Experiment: yeast display, Sf9 membrane polyspecificity reagent, FACS + sequencing; frameworks hold sequencing errors
Method in brief: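 After 36–48 hours of galactose induction, yeast (Saccharomyces cerevisiae BJ5465) displaying a synthetic nanobody library were stained at 4 °C for 1 hour with 10% biotinylated, detergent-solubilized Sf9 membrane reagent. Streptavidin microbeads enriched the stained cells before FACS sorting into low and high (top ~1%) gates on anti-HA and streptavidin fluorescence. Each clone's polyreactivity label reflects its gate of origin.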

REQLQESGGGLVQAGGSLRLSCAASGTIFIRGDMGWYRQSPGKEREFVATIDTGSNTYYADSEKGRFTISRDNAINAVYLQMYCLKPGYTAVYYCVVDYQLSGRLRYWGQGTQVTLSS
polyreactivity (PSR sort gate): low polyreactivity

QVQLVESRGGLVQAGGSLRLSCAASGYIFGYTVMGWYRQAPGTERELVATITRGGDTNYADSVKGGFTISRDNAKNTVYLQMNSLKPEDSSVYYCAAEPVAYYGSSYGYWGQGTQVTVSS
polyreactivity (PSR sort gate): low polyreactivity

QVQLVESGGGLVQAGGSLRLSCAASGFTFSFNAMGWYRQAPGKERELVAAITTADSTYYADSVKGRFTISRDNAKNTVYLQMNSLKPEDTAVYYCAADSYYYGYQGQTQYGWVWYDYWGQGTQVTVSS
polyreactivity (PSR sort gate): low polyreactivity

QEQLQESGSGLVQAGGSLRLICAASRNIFQDWVMGWYRKEPGKEPELVAAISPGAITYYADSVKGRFTISRDNAKNTVYLQTNSLKPEDTAVYYCGAYYIVEYLHGYWGQGTRVTVSS
polyreactivity (PSR sort gate): low polyreactivity

QVQLVESAGGLVQARVSLRLSSAASGRTIPTYTMGWYRQAPGKERELVAAITRGGSTKYADSVKGRFTISRDNAKNTVYLQMNSLKPEDTAVYYCAAVYRYRHSFAYYRHEMDYWGLGTQVTVSS
polyreactivity (PSR sort gate): low polyreactivity

QVQLVESGGGLVQAGGSLRLSCAASGRTFSWYAMGWYRQAPGKEREFVAAITSGGSTYYADSVKGRFTISRDNAMNTVYLQMNSLKPEDTAVYYCAAYGYWGQGTQVTVSS
polyreactivity (PSR sort gate): high polyreactivity

QVQLVESGGGLVQAGGSLRLSCAASGSTFPYPYTMGWYREAPGKERELVAVISRTGGSTFYADSVKRRFTISRDNAKNTVYLQMNSLKPEDTAVYYCAARRDGWTFWKYDYWGQGTQVTVSS
polyreactivity (PSR sort gate): high polyreactivity

QVQLVESGGGLVQAGGSLRLSCAASGSIFWSNAMGWYRQSPGKEREFVASISSSGSTNYADSVKGRFTISRDNAKNTVYLQMNSLKPEDTAVYYCNADGLYSYWYFWSSAYDYWGQGTQVTVSS
polyreactivity (PSR sort gate): low polyreactivity

QLQLVESGGGLVQAGGSLRLSCAASGRIFYQTAMGWYRQAPGKERELVADIASGGSTYYADSVKGRFSISRDNAKNTVHLQMNSLKREDTAVDYCATAVLYGDGWYYYWGQGTQVTVSS
polyreactivity (PSR sort gate): low polyreactivity

QVQLVESWGGLVQAGGSLRLRCAASGRTIDYNAIGWYRQAPRKEREFVADISNGGTTSYADSVKGSFTFSRDNAKNTVYLHMNSLKPEVTAVYYCATLYDWSSFANSYWYFGWEEDYWGQGTQVTVSS
polyreactivity (PSR sort gate): low polyreactivity

QVQLVESGGGLVQAGGSLRLTCADSGSILYINAMGRYIQAPGKEREWVAAITYSGGSTYYADSVKGRFTISRDNAKNTVYLQMNSLKPEDTAVYYCAADAVVAGRYDGHDYWGQGTQVTVSS
polyreactivity (PSR sort gate): low polyreactivity

QVQLVESGGGLVQAGGSLRLSCAASGSTLPSYAMGWYRQAPGKERELVAAISSSGGRTYYADSVKGRFTISRDNAKNTVYLQMNSLKPEDTAVYYCAALSVANYHGTDSGYWGQGTQVTVSS
polyreactivity (PSR sort gate): high polyreactivity

QVQLVESGGGLVQAGGSLRLISAASGIIFWGNAMGWYRQPPGNERELVATITGRGGSTYYADSVKGRFTISRDYAKNTVYLQMNSLKPEDTAVYYCAASGGRPILFYDVWGGIVRHEYWGQGTQVTVSS
polyreactivity (PSR sort gate): low polyreactivity

QVQLVESGGGLVQAGGSLRLSCAASGITFTGNAMGWYRQAPGKERELVAAISNRGGSTYYADSVKGRFTISRDNAKNTVYLQMNSLKPEDTAVYYCRTSTPRRVSGNSWGQGTQVTVSS
polyreactivity (PSR sort gate): high polyreactivity

QVQLVESGGGLVQAGGSLRLSCAASGFIFTYYAMGWYRAAPGKERELVAAIRGSGGRTYYADSVKGRFTISRDNAKNTVYLQMNSLKPEDTAVYYCTADPTWFGYVYYQYDYWGQGTQVTVSS
polyreactivity (PSR sort gate): low polyreactivity

QVQLVESGGGLVQAGGSLRLSCAASGFIFFQYAMGWYRQAPGKERELVAAITARSGSTYYADSVKGRFTISRDNAKNTVYLQMNSLKPEDTAVYYCAARPRYYRWGPLDYWGQGTQVTVSS
polyreactivity (PSR sort gate): high polyreactivity

QVQLVESGGGLVQAGGSLRLSCAASGRIFRVYAMGWYRQAPGKERQLVAAISYSGGRTFYADSVKGRFTISRDNSKNTVYLQMNSLIPEDTAVYYCAAKSYYTQALPPLDYWGQCTQVTVSS
polyreactivity (PSR sort gate): low polyreactivity

QVQLVESGGGLVQAGGSLRLSCAASGGTFAVNVMGWYRQAPGKERELVAAITSNGGSTYYADSVNGRFTISRDNAKNTVYLQMNSLKPEDTAVYYCAAEGSGWYTGHYYYWGQGTQVTVSS
polyreactivity (PSR sort gate): low polyreactivity

QVQLVESGGGLVQAGGSLRLSCAASGSILGLYAMGWYRQAPGKERELVASITSSGSTYYADSVKGRFTISRDNAKNTVYLQMNSLKPEDTAVYYCAARYYYGRRYDYWGQGTQVTVSS
polyreactivity (PSR sort gate): low polyreactivity

QVQLVESGGGLVQAGGSLRLSCAASGSIFVYYAMGWYRQAPGKERELVAAITWSSGRTYYADSVKGRFTISRDNAKNTVYLQMNSLKPEDTAVYYWNVLTRYYLGYDYWGQGTQVTVSS
polyreactivity (PSR sort gate): high polyreactivity

QVKLVETGGGLVQAGGSLRLSCAASGFIFYKYAMGWYRQAPGKERELVASITSGGITNYADSVKGRFTISRDNAKNTVYLQMNSLKPVDTAVYYCNVRWYSRWLITTDYNYWGQGTQVTVSS
polyreactivity (PSR sort gate): high polyreactivity

QVQLVESGGGFVQAGGSLRLSCAASGRIFRYYAMGWSRQAPGKERELVAAINSGGSTKYADSVKGRFTISRDNAKNTVYFQMNSLNPEDTAVYYCNKDHAFSRYWYGGFDYWGQGTQVTVSS
polyreactivity (PSR sort gate): high polyreactivity

QVQLVESGGGLVQAGGSLRLSCAASGRIFPLYAMGWYRQAPGKERELVAAITSSGGSTYYPDSVKGRFTISRDNAKNTVYLQMNSLKPEDTAVYYCAADYSVYWLDYGYWGQGTQVTVSS
polyreactivity (PSR sort gate): low polyreactivity

QVQLQVSGGGLVQAGGSLRLSCAASGSIFLTSEMGWYRQAPCKERELVAANATGTSTNYADSVKGRFTISRDNAKNTVYLQMKSLKPEDTSVYYCAAGTQAHAFVVRPIEMDYWGQGTQVTVSS
polyreactivity (PSR sort gate): low polyreactivity

QVQLAESGGGLVQAGGSLRLICAASGFTFSAYAMGWYRQAPGKERELVAAINTSGGSTYYADSVKGRFTISRDNAKNTVYLQMKSLKPEDTAVYYCASKYASLDRRRRKYDYWGQGTQVTVSS
polyreactivity (PSR sort gate): high polyreactivity

QVQLVESGGGLVQAGGSLSLSCAASGSILDRNTMGWYRQAPGKERELVAAITGSGSRTYYADSVKGRFTISRDNAKNTVYLQMNSLKPEDTAVYYCAAYTHSWTGDNYWGQGTQVTVSS
polyreactivity (PSR sort gate): high polyreactivity

QDQLVESGGGLVQAGGSLRLSCAASGSNFGPYAMGGYRHAPGKERELVARISGGGSTYYADSVKGRFTISRDNAKNTVYLQMNSLKPEDTAVYYCNVRNWAYWSHAIIYNYWGQGTLVTVSS
polyreactivity (PSR sort gate): high polyreactivity

QVQLVESGGGLVQEGGSLRLSCADSGITFWAYAMGWYRQAPGKERELVASISSGGSTYYADSVKGRFTISRDNAKNTVYLQMNSLKPEDTAVYYCNTQDRSEYDWGQGTQVTVSS
polyreactivity (PSR sort gate): high polyreactivity

QVQLVESGGGLVQAGGSLRLSCAASGRIYDDNAMGWYRQAPGKERELVAAISSGDSTKYADSVKGRFTISRDNAKNTVYLQMNSLKPDDTAVYSCAAERNHGLVGSESVGRNDYWGPGTQVTVSS
polyreactivity (PSR sort gate): low polyreactivity

QVQLVESGGGLVQAGGSLRLSCADSGITFSDYAMGWYRQAPGKERELVAAISARGGSTYYADSVKGRFTISRDNAKNTVYLQMNSLKPEDTAVYYCAADKRTPYYSRAGMDYWGQGTQVTVSS
polyreactivity (PSR sort gate): low polyreactivity

QVQHVESGGGLVQARGSLRLSCAPSGFTFETNAMGWYRQAPGKEREFDAAISWTTTSTYFADSVKGRVTISRDNAKNTVYLQMNSLKPEDTAVYSCAVGLIREFGWDYDYWGQGTQVTVSS
polyreactivity (PSR sort gate): low polyreactivity

QVQLVESGGGLVQAGGSLRLSCAASGRTLGKNAMGWYRQAPGKEREFVAAISRSGSRTYYADSVKGRFTISRDNEKYTVYLQMNSLKPEDTAVYYCAADGSGHSQRYDYWGQGTQVTVSS
polyreactivity (PSR sort gate): high polyreactivity

QVQLVESGGGLVQAGGSLRLICAASGSIFRYYAMGWYRQAPGKERELVATISWSGGGTYYADSVKGRFTISRHNAKNTVYLQMNSLKPEDTAVYYCAADYGEQYVYWGQGTQVTVSS
polyreactivity (PSR sort gate): low polyreactivity

QVQLVESGGGLVQAGGSLRLSSAASGTIFRSYSMGWSRQAPGKERELVASITWRGGRTYYADSVKGRFTISRDNAKNTVYLQMNSLKPEDTAVDFCAVLWTPAGGYYFRYDYWGQGTQVTVSS
polyreactivity (PSR sort gate): low polyreactivity

QVQLVESGGGLVQAGGSLRLSCAASGITFKYYVMGWYRQAPGKEREFVAAISWGGGSTYYADSVKGRFTISRDNAKNTVYLQMNSLKPEDTAVYYCAARKGYYTHVQIGYRQSMDYWGQGTQVTVSS
polyreactivity (PSR sort gate): high polyreactivity

QVQLVESGGGLVQAGGSLPLSCAASGSIYGANAQGWYRQAPGKERELVAAISSNGDDTYADSVKGRFTISRDNAKNTVYIQMNSLKPEDTAVYYCNKRPWWWGGDDYGGQGTQVTVSS
polyreactivity (PSR sort gate): low polyreactivity

QVQLVESGGGLVQAGGSLRLSCASSGGTFTAYAMGWYSQAPGKERELVAAITTNGGRTYYADSVKGRFTISRDNAKNTVYLQMNSLKPEDTAVDYCNRVSLSRRWFLYDYWGQGTQVTVSS
polyreactivity (PSR sort gate): high polyreactivity

QVQLVESGGGLVQAGGSLRLSCAASGNILTTYAMGWYRQAPGKERELVAAIRWSDGSTYYADSVKGRFTISRDNAKNTVYLQMYSLKPEDNAVYYCAADYHYPTWQGGYHYGYWGQGTQVTVSS
polyreactivity (PSR sort gate): high polyreactivity

QVQLVESGGGLVQAGGSLRLSWAASGSNFDAYAMGWYRPAPGKERELVAAINARGGSTYYADSVKGRFTISRDNAKNTVYLQMNSLKPEETAVYDCNRLSRVRRYIYDYWGQGTQVTVSS
polyreactivity (PSR sort gate): high polyreactivity

QVQLVESGGGLVQAGGSLRLSCAASGSFIVQNSMGWYRQAPAKERELVAANTRGGSTYYADSVKGRFTISRDNAKNTVYLQMNSLKPEDTAVYYCAAYWYYYLMDYWGQGTQVTVSS
polyreactivity (PSR sort gate): low polyreactivity

QVQLVESGGGLVQAGGSLRLSCAASGRIFSYYTMGGYRQAPGTERELVAAISSGGSTNYADSVKGRFTISRDNAKNTVYLQMNSLKPEDTAVYYCAVRSGRRNYDRPAFGYWGQGTQVTVSS
polyreactivity (PSR sort gate): high polyreactivity

QVQLVESGGGLVQAGGSLRLSCAASGSTFRTYAMGWYRQAPGKERELVATITRTGGSTYYADSVKGRFTISRDNAKNTVYLQMNSLKPEDTAVYYCAARRSHQYRGPHFNYWGQGTLVTVSS
polyreactivity (PSR sort gate): low polyreactivity

QVQLVESGGGLVQAGGSLRLSCAASGFTFGYNAMGWYRQAPGKERELVAVINKSGGSTYYADSVKGRFTISRDNAKNTVYLQMNSLKPEDTAVYYCAATYNGWKRYYYWGQGTQVTVSS
polyreactivity (PSR sort gate): high polyreactivity
